Test [1] deals with T1, full-length Sudan GP (GPFL) (Sudan virus (SUDV), UniProt Q7T9D9 33-650).
T1 construct: also called Sudan GPFL; GP(S)FL
T1 sequence: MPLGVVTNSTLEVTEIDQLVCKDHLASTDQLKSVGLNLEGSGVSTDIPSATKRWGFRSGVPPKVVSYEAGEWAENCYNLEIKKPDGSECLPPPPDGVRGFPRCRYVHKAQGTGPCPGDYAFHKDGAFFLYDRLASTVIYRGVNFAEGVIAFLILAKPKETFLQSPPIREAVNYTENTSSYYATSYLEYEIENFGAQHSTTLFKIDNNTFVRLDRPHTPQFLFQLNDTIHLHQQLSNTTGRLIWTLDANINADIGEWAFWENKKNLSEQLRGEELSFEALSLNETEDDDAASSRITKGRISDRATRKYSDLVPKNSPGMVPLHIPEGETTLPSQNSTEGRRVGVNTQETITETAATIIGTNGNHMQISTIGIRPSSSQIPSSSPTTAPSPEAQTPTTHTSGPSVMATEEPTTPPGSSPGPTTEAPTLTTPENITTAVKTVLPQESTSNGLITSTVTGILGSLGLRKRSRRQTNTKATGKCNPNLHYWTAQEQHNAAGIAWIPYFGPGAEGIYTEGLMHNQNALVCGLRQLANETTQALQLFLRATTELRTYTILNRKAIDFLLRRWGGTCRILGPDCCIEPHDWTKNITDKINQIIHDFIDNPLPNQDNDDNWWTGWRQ
Kind of test: ELISA on coated GP.

Test [2] has as its target T2, full-length Zaire GP (GPFL) (Ebola (Zaire) virus (EBOV), UniProt Q05320 33-632).
T2 construct: also called Zaire GPFL; GP(Z)FL
T2 sequence: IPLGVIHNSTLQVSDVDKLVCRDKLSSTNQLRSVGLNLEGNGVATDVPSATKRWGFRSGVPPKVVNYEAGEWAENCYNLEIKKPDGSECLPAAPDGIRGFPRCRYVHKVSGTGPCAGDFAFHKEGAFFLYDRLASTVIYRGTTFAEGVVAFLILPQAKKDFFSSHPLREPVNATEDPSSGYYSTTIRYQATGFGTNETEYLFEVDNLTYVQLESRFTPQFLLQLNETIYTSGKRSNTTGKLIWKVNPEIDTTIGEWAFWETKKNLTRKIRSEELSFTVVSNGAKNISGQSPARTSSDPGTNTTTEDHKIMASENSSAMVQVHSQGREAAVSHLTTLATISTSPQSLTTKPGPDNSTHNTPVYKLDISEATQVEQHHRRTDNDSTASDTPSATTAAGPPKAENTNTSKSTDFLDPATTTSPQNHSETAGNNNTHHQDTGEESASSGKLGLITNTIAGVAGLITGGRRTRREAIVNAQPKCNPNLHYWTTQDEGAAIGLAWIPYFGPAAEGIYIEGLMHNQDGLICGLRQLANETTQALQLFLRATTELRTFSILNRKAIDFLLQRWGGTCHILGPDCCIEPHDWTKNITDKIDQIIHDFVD
Kind of test: ELISA on coated GP.

Test [3] deals with T1, full-length Sudan GP (GPFL). The test can be described thus: ELISA on coated GP. This is another data set of the same source. A general note: An ELISA detects its analyte on a solid surface through an enzyme-linked reagent.
For test [4], the target named is T3, SUDV GP on pseudotyped lentiviral vector (Sudan virus (SUDV), UniProt Q7T9D9 33-676).
T3 sequence: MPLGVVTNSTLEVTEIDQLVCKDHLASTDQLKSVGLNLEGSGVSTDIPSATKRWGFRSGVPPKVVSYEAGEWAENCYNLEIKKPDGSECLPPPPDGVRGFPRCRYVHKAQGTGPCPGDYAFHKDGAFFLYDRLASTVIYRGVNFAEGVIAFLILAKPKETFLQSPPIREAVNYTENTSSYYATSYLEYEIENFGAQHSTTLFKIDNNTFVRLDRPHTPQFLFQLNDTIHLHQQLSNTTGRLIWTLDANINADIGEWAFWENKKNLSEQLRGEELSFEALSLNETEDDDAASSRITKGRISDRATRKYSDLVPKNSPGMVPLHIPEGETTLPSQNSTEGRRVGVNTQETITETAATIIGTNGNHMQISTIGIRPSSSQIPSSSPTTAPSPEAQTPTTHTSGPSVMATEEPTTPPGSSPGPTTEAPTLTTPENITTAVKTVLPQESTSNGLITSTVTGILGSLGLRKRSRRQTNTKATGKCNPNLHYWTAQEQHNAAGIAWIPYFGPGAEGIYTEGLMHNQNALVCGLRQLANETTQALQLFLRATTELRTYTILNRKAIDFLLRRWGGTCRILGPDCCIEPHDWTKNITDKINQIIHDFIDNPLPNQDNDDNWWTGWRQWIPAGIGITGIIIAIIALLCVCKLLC
Kind of test: cell-based or functional assay.

The target of test [5] is T4, EBOV GP on pseudotyped lentiviral vector (Ebola (Zaire) virus (EBOV), UniProt Q05320 33-676).
T4 sequence: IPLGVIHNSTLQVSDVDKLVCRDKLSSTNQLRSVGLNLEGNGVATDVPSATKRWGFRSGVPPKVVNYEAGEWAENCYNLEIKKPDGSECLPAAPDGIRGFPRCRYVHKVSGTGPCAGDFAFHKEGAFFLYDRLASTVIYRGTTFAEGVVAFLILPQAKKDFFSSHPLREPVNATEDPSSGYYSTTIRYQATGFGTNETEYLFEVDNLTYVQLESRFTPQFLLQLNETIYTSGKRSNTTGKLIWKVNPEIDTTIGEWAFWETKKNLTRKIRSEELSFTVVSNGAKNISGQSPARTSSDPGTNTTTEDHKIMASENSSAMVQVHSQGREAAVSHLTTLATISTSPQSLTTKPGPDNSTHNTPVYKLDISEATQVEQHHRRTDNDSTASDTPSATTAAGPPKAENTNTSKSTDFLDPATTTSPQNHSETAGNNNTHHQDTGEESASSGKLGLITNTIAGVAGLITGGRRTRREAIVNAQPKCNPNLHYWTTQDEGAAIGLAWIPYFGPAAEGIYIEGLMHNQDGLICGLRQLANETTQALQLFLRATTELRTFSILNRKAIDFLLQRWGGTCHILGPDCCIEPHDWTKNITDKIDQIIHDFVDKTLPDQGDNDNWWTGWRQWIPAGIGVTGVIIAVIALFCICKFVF
The test can be described thus: cell-based or functional assay.

In test [6] the target is T3, SUDV GP on pseudotyped lentiviral vector. The test can be described thus: cell-based or functional assay. This is another data set of the same source.

Where two headings read alike, the source gives them in different places.

B1: antibody 314L (antibody, V domains shown)
VH: EERLVESGGGLVQPGGSLRLSCAASGFTFGDYAMHWVRQVPGKSLEWLSGISWSGYTTYSADSVKGRFTISRDNAKNSLYLQMNRLRPEDTGLYYCVTLIGAIGIKDSLDVWGRGVLVTVSS
VL: EVVFTQPHSVSGSPGQMVTISCTRSSGTIDNSYVYWHQQRPGSAPTTVIYNDDQRPSGVPDRFSGSIDSSSNSASLTISGLKSEDEADYYCQSYDSSGWVFGGGTRLTVL
In general, EC50 refers to the midpoint of the concentration-response curve. Low readings indicate a more potent agent, high ones a less potent agent. Regarding B1, the EC50 in test [1] is 1.05 µg/mL; in test [2], 1.73 µg/mL.

B2: antibody 503S (antibody, V domains shown)
VH: QVQLVQSGAEVKKPGASVRVSCKASGYTFTSYYMHWVRQAPGQGLEWMGQINPSGGTTRYERKFQGRITVTRDTSTSTVYLELSSLRSEDTASYFCACLRDKVTYYDLWSGVDSVWGQGTLVTVSS
VL: DIQMTQSPSSLSASVGDRVTITCRASQDISTWLAWYQQKPEKAPKSLIYAASTLETGVPSRFSGSGSGTDFTLTISSLQPEDFATYYCEQYNGFPRTFGQGTKLDIK
As for B2, in test [3], the EC50 was 0.64 µg/mL. Moreover, in test [4], the “IC50, microneutralization of GP-pseudotyped lentiviral vector on HEK293 cells” value (shortened to “IC50, microneutralization”) was found to be 0.102 µg/mL.

B3: antibody 232L (antibody, V domains shown)
VH: KSQLVESGGGLVQPGGSLRLSCAASGFTFDAYAMHWVRQAPGEGLEWVTAISWSGSSTYYADSVKGRFTFSRDNAKNSLYLEMNSLRADDTAFYYCVKGGVYNWFDVWGPGVLVTVSS
VL: QSVLTQPPSVSGAPGQRVTISCTGSRSNIGGYYVSWYQQFPGTTPKLLIYQDNKRPSGVSDRFSGSKSGTSASLTITGLQTEDEADYYCLSYDSSLNGWVFGGGTRLTVL
As to B3, the EC50 in test [1] came out at 0.09 µg/mL; in test [2], 0.08 µg/mL. The “IC50, microneutralization” value in test [5] and in test [6] was more than 10 µg/mL in each case.

B4: antibody 231L (antibody, V domains shown)
VH: EVQLVESGGGLVQPGGSLRLSCAASAFTFDDYAMHWVRQAPGKGLEWVSGITWSGLSTYYADSVKGRFTISRDNAKNSLYLQMNSLRVEDTALYYCAKSGNNSPFSGLDSWGQGAVVTVSS
VL: QSVLTQPPSVSGAPGQRVTVSCTGSSSNIGAGSYVQWYQQLPGTAPKLLIYENNKRPSGVSDRFSGSKSGTSASLTITGLQSEDEADYYCQSYDSSLNAYIFGAGTRLTVL
B4: the EC50 in test [1] was 0.4 µg/mL; in test [2] it was 0.002 µg/mL. Moreover, the “IC50, microneutralization” value in test [5] and in test [6] was more than 10 µg/mL throughout.

B5: antibody 191L (antibody, V domains shown)
VH: EVQLVESGGGLVQPGGSLRLSCAASGFTFSSYGIHWVRQAPGKGLEWVAIISYDGNKKFHADSVKDRFTISRDNSKNMLYLQMNNLKLEDTAVYYCARAYDSGYFAGSVFYYWGQGVLVTVSS
VL: EVVFTQPHSVSGSPGQTVTISCTRSSGSIDSEYVQWYQQRPGNAPTTVIYKDNQRPSGVPDRFSGSIDSSSNSASLAISGLKSEDEADYYCQSADGNYHPVFGEGTRLTVL
For B5, the figures for the EC50 in test [1] and in test [2] were 0.02 µg/mL and 0.01 µg/mL, respectively. Moreover, the “IC50, microneutralization” value in test [5] and in test [6] was more than 10 µg/mL each time.

B6: antibody 315L (antibody, V domains shown)
VH: QVQLQESGPGLVKPSETLSLTCTVSGGSITGNYWTWVRQPPGKGLQYIGRFDAGGKTYYNPPLKSRVSILGDKSKNQVSLNLTSVTVADTGVYYCAREQWGQLLSGSFDVWGRGVLVTVSS
VL: SYELTQPPSVSVSPGQTARITCSGDALPDYYAHWYQQKSGQAPMLVIYKDTERPSGIPERFSGSSSGTTVSLTISGVQAEDEADYYCQSGDSSGNHWVFGGGTRLTVL
Consider B6, for which the EC50 in test [1] came to 0.01 µg/mL; in test [2] it was 1.8 µg/mL. Also, the “IC50, microneutralization” value in test [6] is more than 10 µg/mL.

B7: antibody 233S (antibody, V domains shown)
VH: EVQLVESGGGLGQPGGSLRLSCAASGFKFKIFGMNWVRQAPGKGLEWVSYISSRSSIIYYADSVKGRFTISRDDATNSLFLQMNSLRDEDTAMYYCVRDYNLIDFVWGSLFDYWGQGILVTVSS
VL: AIRMTQSPSSLSASTGDSVTITCRASQNIASYLAWYQQIPGKAPKLLIYVASTLQSGVPSRFSGSGSGTDFTLTISSLQSEDFATYYCQQYYRYPPTFGQGTKVEIK
The molecule B7 returned an EC50 in test [3] of 0.133 µg/mL. The “IC50, microneutralization” value in test [4] was 0.167 µg/mL.

B8: antibody 523S (antibody, V domains shown)
VH: QVQLVQSGAELKKPGASVKVSCKASGYTFSDHYVHWVRQAPGQGLEWMGRINPNSGGTNYAQRFLGRVTMTRDASISTAYLDLSSLRSDDTAVYYCARSSSSWSGHYYYYMDVWGKGTTVTVSS
VL: QSVLTQPPSVSAAPGQRVTISCSGSTSNIASNFVSWYQQLPGTAPKLLIYDNHKRPSGIPDRFSGSKSGTSATLGITGLQTGDEADYYCGTWDSSLSAGVFGGGTKVTVLG
On to B8, for which the EC50 in test [3] turned out to be 0.371 µg/mL. Also, the “IC50, microneutralization” value in test [4] is 0.108 µg/mL.

B9: antibody 206L (antibody, V domains shown)
VH: EVQLVESGGGVVQPGGSLRLSCAASGFTFDDYAMHWVRQAPGKGLEWVSGISWSGGNTYYADSVKGRFTVSRENAKNSLYLQMNRLRAEDTAFYNCARTSQGGAVVFSAPNYWGQGVLVTVSS
VL: QSVLTQAPSVSGAPGQRVTISCTGSSSNIGGYYVQWYQQLPGRAPKLLIYENNKRPSGVSDRFSGSRSASSASLTITGLQSEDEADYYCQSYDSRLNGYIFGGGTRLTVL
Regarding B9, the EC50 in test [1] amounted to 2.58 µg/mL; in test [2] it was 0.001 µg/mL. Also, the “IC50, microneutralization” value in test [5] and in test [6] was more than 10 µg/mL each time.

These data come from US20260209316A1 (US Dept. of Health and Human Services, published 2026).
